Six molecules from patent US20140178332A1 (published 2014) can be followed below.

Read-outs that look alike come from different tables or passages of the source.

The target in experiment [1] is T1, recombinant purified human IL-12 p70 (human, UniProt P29459 23-219).
T1 sequence 1: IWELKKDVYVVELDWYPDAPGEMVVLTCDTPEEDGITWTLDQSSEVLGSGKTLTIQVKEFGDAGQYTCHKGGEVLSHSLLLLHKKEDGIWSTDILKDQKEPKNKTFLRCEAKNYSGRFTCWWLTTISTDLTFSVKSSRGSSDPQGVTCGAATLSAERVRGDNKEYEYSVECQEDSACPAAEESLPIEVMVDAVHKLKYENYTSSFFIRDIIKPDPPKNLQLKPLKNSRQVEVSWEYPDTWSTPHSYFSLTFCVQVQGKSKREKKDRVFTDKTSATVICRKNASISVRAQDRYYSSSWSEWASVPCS
T1 sequence 2: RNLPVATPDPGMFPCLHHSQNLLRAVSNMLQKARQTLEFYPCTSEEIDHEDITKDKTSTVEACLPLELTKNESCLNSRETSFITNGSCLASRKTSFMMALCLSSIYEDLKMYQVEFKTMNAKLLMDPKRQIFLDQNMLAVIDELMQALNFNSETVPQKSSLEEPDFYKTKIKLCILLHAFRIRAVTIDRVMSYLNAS
Kind of experiment: cell-based or functional assay.

Experiment [2] addresses T1, recombinant purified human IL-12 p70. Kind of experiment: SPR (Biacore) according to Example 1.1.B. As to the method: (§1) The BIACORE assay (Biacore, Inc, Piscataway, N.J.) determines the affinity of antibodies with kinetic measurements of on-, off-rate constants. Binding of antibodies to recombinant purified human IL-12 p70 or recombinant purified human IL-12 p40 were determined by surface plasmon resonance-based measurements with a Biacore® 3000 instrument (Biacore® AB, Uppsala, Sweden) using running HBS-EP (10 mM HEPES [pH 7.4], 150 mM NaCl, 3 mM EDTA, and 0.005% surfactant P20) at 25° C. All chemicals were obtained from Biacore® AB (Uppsala, Sweden) or otherwise from a different source as described in the text. Approximately 5000 RU of goat anti-mouse IgG, (Fcγ), fragment specific polyclonal antibody (Pierce Biotechnology Inc, Rockford, Ill.) diluted in 10 mM sodium acetate (pH 4.5) was directly immobilized across a CM5 research grade biosensor chip using a standard amine coupling kit according to manufacturer's instructions and procedures at 25 μg/ml. Unreacted moieties on the biosensor surface were blocked with ethanolamine. Modified carboxymethyl dextran surface in flowcell 2 and 4 was used as a reaction surface. Unmodified carboxymethyl dextran without goat anti-mouse IgG in flow cell 1 and 3 was used as the reference surface. For kinetic analysis, rate equations derived from the 1:1 Langmuir binding model were fitted simultaneously to association and dissociation phases of all eight injections (using global fit analysis) with the use of Biaevaluation 4.0.1 software. Purified antibodies were diluted in HEPES-buffered saline for capture across goat anti-mouse IgG specific reaction surfaces. Mouse antibodies to be captured as a ligand (25 μg/ml) were injected over reaction matrices at a flow rate of 5 μl/min. The association and dissociation rate constants, kₒₙ (unit M⁻¹ s⁻¹) and koff (unit s⁻¹) were determined under a continuous flow rate of 25 μl/min. Rate constants were derived by making kinetic binding measurements at ten different antigen concentrations ranging from 10-200 nM. The equilibrium dissociation constant (unit M) of the reaction between mouse antibodies and recombinant purified human IL-12 p70 or recombinant purified human IL-12 p40 was then calculated from the kinetic rate constants by the following formula: KD=koff/kₒₙ. Binding is recorded as a function of time and kinetic rate constants are calculated.
Background: Surface plasmon resonance follows binding to a sensor surface in real time, without labels.

The target is the same in experiment [3]. Kind of experiment: cell-based or functional assay. This is another data set of the same source.
For experiment [4] the target is unchanged. Kind of experiment: SPR (BIAcore) as in Example 1.1.B, human IL-12p70. As to the method:
as §1, with “Approximately” for “The BIACORE assay (Biacore, Inc, Piscataway, N.J.) determines the affinity of antibodies with kinetic measurements of on-, off-rate constants. Binding of antibodies to recombinant purified human IL-12 p70 or recombinant purified human IL-12 p40 were determined by surface plasmon resonance-based measurements with a Biacore® 3000 instrument (Biacore® AB, Uppsala, Sweden) using running HBS-EP (10 mM HEPES [pH 7.4], 150 mM NaCl, 3 mM EDTA, and 0.005% surfactant P20) at 25° C. All chemicals were obtained from Biacore® AB (Uppsala, Sweden) or otherwise from a different source as described in the text. Approximately”, “calculated. In this assay, on-rates as fast as 10⁶M⁻¹ s⁻¹ and off-rates as slow as 10⁻⁶ can be measured. […]” for “calculated.”

Experiment [5] has the same target. Nature of the experiment: competition ELISA on coated human IL-12, competitor of 0.8 µg/ml biotinylated 8E1, Expt. 3. How it is done: MaxiSorp ELISA plates (Nalge Nunc International) were coated overnight at 4° C. with 100 μl/well of 1.0 μg/ml human IL-12 in 0.2 M sodium carbonate-bicarbonate buffer, pH 9.4, washed with Wash Buffer (PBS containing 0.1% Tween 20), and blocked for 1 hr at room temperature with 300 μl/well of SuperBlock Blocking Buffer in TBS (Pierce Chemical Company). […] As isotype controls, 100 μl/well of 100 μg/ml mouse IgG 1/κ (MuFd79) or humanized IgG1/κ (HuFd79) monoclonal antibodies in ELISA buffer was used. As a no-competitor control, 100 μl/well of ELISA Buffer was used. After incubating the plates for 1 hr at room temperature, and washing with Wash Buffer, bound antibodies were detected using 100 μl/well of 1 μg/ml HRP-conjugated streptavidin (Pierce Chemical Company) in ELISA buffer. After incubating for 1 hr at room temperature, and washing with Wash Buffer, color development was performed by adding 100 μl/well of ABTS Peroxidase Substrate/Peroxidase Solution B (KPL, Inc.). After incubating for 5 min at room temperature, color development was stopped by adding 50 μl/well of 2% oxalic acid. Absorbance was read at 415 nm.
The affinity of 8E1.4, 8E1.5 and 8E1.6 to human IL-12 was analyzed by competition ELISA as described above.
(ELISA stands for enzyme-linked immunosorbent assay.)

B1: additional humanized anti-IL-12 antibody 1A6.10 (antibody, human IgG1, V domains shown)
VH: EVTLRESGPGLVKPTQTLTLTCTLYGFSLSTSGMGVSWIRQPPGKGLEWLAHIWWDGDNYYNPSLKSQLTISKDTSKNQVVLKLTSVDPVDTATYYCARRTRVNYAMDYWGQGTLVTVSS
VL: DIQMTQSPSSLSASVGDRVTITCKASQSVSNDVAWYQQKPGKAPKLLIYYASNRYTGVPDRFSGSGYGTDFTFTISSLQPEDIATYYCQQDYNSPWTFGGGTKVEIKR
notes: Only variable domains tied to it
By Kd is commonly meant the concentration at which binding is half-saturated. In general, koff refers to the first-order rate constant of dissociation. As a reminder, the kon is a measure of how fast the partners come together. For the molecule B1, in experiment [1], the “Av. IC50 (nM) huIL-12, PHA blast assay” value is 0.15 nM. In addition, in experiment [2], the dissociation constant Kd turned out to be 0.024 nM, the dissociation rate constant (koff) was determined as 7.6e-06 s⁻¹ and the kon was found to be 320000 M⁻¹ s⁻¹.

B2: additional humanized anti-IL-12 antibody 1A6.12 (antibody, human IgG1, V domains shown)
VH: EVTLRESGPGLVKPTQTLTLTCTLYGFSLSTSGMGVSWIRQPPGKGLEWLAHIWWDGDNYYNPSLKSQLTISKDTSKNQVVLKLTSVDPVDTATYYCARRTRVNYAMDYWGQGTLVTVSS
VL: DIQMTQSPSSLSASVGDRVTITCKASQSVSNDVAWFQQKPGKAPKLLIYYASNRYTGVPDRFSGSGYGTDFTFTISSLQPEDIATYYCQQDYNSPWTFGGGTKVEIKR
notes: as for B1
As for B2, the “Av. IC50 (nM) huIL-12, PHA blast assay” value in experiment [1] stood at 0.088 nM. In addition, in experiment [2], the Kd was found to be 0.4 nM, the koff is 0.0003 s⁻¹ and the kon is 740000 M⁻¹ s⁻¹.

B3: anti-IL-12p40 humanized antibody 3G7.3 (antibody, human IgG1, kappa, L234A L235A, V domains shown)
VH: EVQLVQSGAEVKKPGASVKVSCKATGYTFNDYWIEWVRQAPGQGLEWMGGFSHGSGSTNYNEKFKGRVTMTADSSTNTAYMELRSLRSDDTAVYYCARRRFRGMDYWGQGTTVTVSS
VL: EIVMTQSPATLSVSPGERATLSCKASQSVSNDVAWYQQKPGQAPRLLIYYASNRYTGVPDRFSGSGSGTEFTLTISSLQSEDFAVYYCQQDYSSPWSFGGGTKVEIKR
notes: Back-mutated CDR-grafted antibody; COS cells
B3: the “Av. IC50 (nM) huIL-12, PHA blast assay” value in experiment [3] was 0.42 nM. In addition, in experiment [4], the equilibrium dissociation constant (Kd) was found to be 0.2 nM, the dissociation rate constant (koff) was 0.00015 s⁻¹ and the on-rate constant (kon) was 780000 M⁻¹ s⁻¹.

B4: anti-IL-12p40 humanized antibody 8E1.3 (antibody, human IgG1, kappa, L234A L235A, V domains shown)
VH: EVKLVESGGGLVQPGGSLRLSCAASGFTFSDYGMVWVRQAPGKGLEWVASISSGSSNIYYADTVKGRFTISRDDSKNTLYLQMNSLKTEDTAVYYCARNPYWGQGTTVTVSS
VL: DIVMTQSPSSLSASVGDRVTITCKASQNVGTNVAWYQQKPEKAPKSLIYSASHRYSGVPSRFSGSGSGTDFTLTISSLQPEDFATYYCQQYNSYPLTFGGGTKVEIKR
notes: as for B3
Take B4: in experiment [3], the “Av. IC50 (nM) huIL-12, PHA blast assay” value is 10 nM. Also, in experiment [4], the Kd came out at 0.76 nM, the off-rate constant (koff) amounted to 0.001 s⁻¹ and the kon was determined as 1.3e+06 M⁻¹ s⁻¹.

B5: additional humanized anti-IL-12 antibody 8E1.4 (antibody, IgG1, V domains shown)
VH: EVQLVESGGGLVQPGGSLRLSCAASGFTFSDYGMVWVRQAPGKGLEWVASISSGSSNIYYADTVKGRFTISRDNAKNTLYLQMNSLRAEDTAVYYCARNPYWGQGTLVTVSS
VL: DIQMTQSPSSLSASVGDRVTITCKASQNVGTNVAWYQQKPGKAPKGLIYSASHRYSGVPSRFSGSGSGTDFTLTISSLQPEDFATYYCQQYNSYPLTFGGGTKVEIKR
notes: IgG1/kappa
As usually defined, the IC50 is the concentration that inhibits the measured activity by half. Consider B5, for which the “Av. IC50 (nM) huIL-12, PHA blast assay” value in experiment [1] came out at 12 nM. Also, in experiment [2], the Kd stood at 1.3 nM, the off-rate constant (koff) stood at 0.001 s⁻¹ and the kon was determined as 800000 M⁻¹ s⁻¹. Also, the half-maximal inhibitory concentration (IC50) in experiment [5] is 8.33 µg/mL.

B6: additional humanized anti-IL-12 antibody 8E1.5 (antibody, IgG1, V domains shown)
VH: EVQLVESGGGLVQPGGSLRLSCAASGFTFSDYGMVWVRQAPGKGLEWVASISSGSSNIYYADTVKGRFTISRDNAKNTLYLQMNSLRAEDTAVYYCARNPYWGQGTLVTVSS
VL: DIQMTQSPSSLSASVGDRVTITCKASQNVGTNVAWYQQKPGKAPKGLIYSASHRYSGVPDRFSGSGSGTDFTLTISSLQPEDFATYYCQQYNSYPLTFGGGTKVEIKR
notes: IgG1/kappa
With B6, the “Av. IC50 (nM) huIL-12, PHA blast assay” value in experiment [1] came to 8 nM. For the same molecule, in experiment [2], the Kd amounted to 0.75 nM, the off-rate (koff) stood at 0.00124 s⁻¹ and the kon was found to be 1.6e+06 M⁻¹ s⁻¹. In experiment [5], the IC50 was 13.4 µg/mL.
